T1: recombinant human B7-H3-his extracellular domain protein (UniProtKB-Q5ZPR3, 1 aa-461 aa) (human, UniProt Q5ZPR3 29-461)
T1 construct: range 1-461; The printed range 1-461 starts at residue 1 and so includes the signal peptide; also called Human B7-H3 ECD; recombinant human B7-H3-his protein; not shown: C-terminal his tag
T1 sequence (looked up): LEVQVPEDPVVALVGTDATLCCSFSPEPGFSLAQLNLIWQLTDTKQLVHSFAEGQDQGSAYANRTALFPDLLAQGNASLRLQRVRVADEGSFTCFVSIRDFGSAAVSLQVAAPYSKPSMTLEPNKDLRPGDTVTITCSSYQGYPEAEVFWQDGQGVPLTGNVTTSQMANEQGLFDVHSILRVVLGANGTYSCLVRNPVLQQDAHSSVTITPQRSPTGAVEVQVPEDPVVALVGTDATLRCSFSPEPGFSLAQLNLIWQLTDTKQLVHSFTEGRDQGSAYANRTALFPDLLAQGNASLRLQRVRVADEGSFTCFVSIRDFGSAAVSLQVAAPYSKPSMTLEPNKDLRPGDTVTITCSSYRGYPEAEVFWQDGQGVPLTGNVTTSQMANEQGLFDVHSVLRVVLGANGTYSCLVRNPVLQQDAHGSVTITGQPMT


Target: T1, recombinant human B7-H3-his …
Test: BLI (Octet QKe), antibody on AHC biosensor, B7-H3-his 60 nM in solution
Description: According to the mutation designs, site-directed mutagenesis was performed in the plasmids expressing the humanized light chains and heavy chains respectively using StarMut gene Site-directed Mutagenesis Kit (Cat.: T111-01, GenStar). The mutated plasmids were transformed into E. coli cells for expansion, and plasmids expressing the humanized and mutated light and heavy chains based on the antibodies 9B11, 10B4, and 17A3 were obtained. […] 5-6 days after cell transfection, culture supernatants were purified through ProA affinity chromatography column to obtain different humanized antibodies. Affinities of the antibodies were determined by an assay including capturing Fc fragments of the antibodies with anti-human IgG Fc capture (AHC) biosensors using Octet QKe system instrument from Fortebio. For the assay, each of the humanized antibodies and the chimeric antibodies based on the antibodies 9B11, 10B4, and 17A3 was diluted to 4 μg/ml in PBS, and was allowed to flow through the surface of an AHC biosensor (Cat.: 18-0015, PALL) for 300 s. Recombinant human B7-H3-his protein (Accession No.: UniProtKB-Q5ZPR3, 1 aa-461 aa) was used as a mobile phase, and its concentration was 60 nM. The association time was 100 s and the dissociation time was 300 s. When the assay was finished, data from which the response values of blank control had been deducted were fitted to a 1:1 Langmuir binding model using software, and then kinetic constants for antigen-antibody binding were calculated. The light and heavy chain combinations and the affinity constant KD values of the humanized and the mutant antibodies based on the antibodies 9B11, 10B4, and 17A3 are shown in Tables 6-8 respectively.

| Binder | Kd |
| --- | --- |
| hz10B4-8 (antibody, human IgG1, kappa, hz10B4_VH4 + hz10B4_VL2; human IgG1, kappa) heavy: not shown light: DIQLTQSPSSLSASVGDRVTMTCSASSSVSYMHWYQQKPGKAPKLLIYDTSKLASGVPSRFSGSGSGTDFTLTISSLQPEDFATYYCQQWSSNPLTFGGGTKVEIKRTVAAPSVFIFPPSDEQLKSGTASVVCLLNNFYPREAKVQWKVDNALQSGNSQESVTEQDSKDSTYSLSSTLTLSKADYEKHKVYACEVTHQGLSSPVTKSFNRGEC | 0.211 nM |
| hz10B4-10 (antibody, human IgG1, kappa, V domains shown, hz10B4_VH3 + hz10B4_VL4; human IgG1, kappa) VH: EVQLVQSGAEVKKPGASVKVSCKASGYTFTEYIMHWVRQAPGQGLEWMGGINPASGGTTYNQKFKGRVTMTRDTSISTAYMELSRLRSEDTAVYYCARKGKDYFDWYFDVWGQGTTVTVSS VL: DIQLTQSPSSLSASVGDRVTMTCSASSSVSYMHWYQQKPGKAPKLLIYDTSKLASGVPSRFSGSGSGTDFTLTISSLQPEDFATYYCQQWSASPLTFGGGTKVEIKR | 0.381 nM |
| hz10B4-5 (antibody, human IgG1, kappa, hz10B4_VH1 + hz10B4_VL2; human IgG1, kappa) heavy: not shown light: DIQLTQSPSSLSASVGDRVTMTCSASSSVSYMHWYQQKPGKAPKLLIYDTSKLASGVPSRFSGSGSGTDFTLTISSLQPEDFATYYCQQWSSNPLTFGGGTKVEIKRTVAAPSVFIFPPSDEQLKSGTASVVCLLNNFYPREAKVQWKVDNALQSGNSQESVTEQDSKDSTYSLSSTLTLSKADYEKHKVYACEVTHQGLSSPVTKSFNRGEC | 0.998 nM |
| hz10B4-1 (antibody, human IgG1, kappa, hz10B4_VH1 + hz10B4_VL1; human IgG1, kappa) heavy: not shown light: DIQMTQSPSSLSASVGDRVTMTCSASSSVSYMHWYQQKPGKAPKLLIYDTSKLASGVPSRFSGSGSGTDFTLTISSLQPEDFATYYCQQWSSNPLTFGGGTKVEIKRTVAAPSVFIFPPSDEQLKSGTASVVCLLNNFYPREAKVQWKVDNALQSGNSQESVTEQDSKDSTYSLSSTLTLSKADYEKHKVYACEVTHQGLSSPVTKSFNRGEC | 0.827 nM |
| hz10B4-14 (antibody, human IgG1, kappa, V domains shown, hz10B4_VH4 + hz10B4_VL5; human IgG1, kappa) VH: EVQLVQSGAEVKKPGASVKVSCKASGYTFTEYIMHWVRQAPGQGLEWMGGINPNQGGTTYNQKFKGRVTMTRDTSISTAYMELSRLRSEDTAVYYCARKGKDYFDWYFDVWGQGTTVTVSS VL: DIQLTQSPSSLSASVGDRVTMTCSASSSVSYMHWYQQKPGKAPKLLIYDTSKLASGVPSRFSGSGSGTDFTLTISSLQPEDFATYYCQQWSSQPLTFGGGTKVEIKR | 0.523 nM |
| hz10B4-11 (antibody, human IgG1, kappa, V domains shown, hz10B4_VH3 + hz10B4_VL5; human IgG1, kappa) VH: EVQLVQSGAEVKKPGASVKVSCKASGYTFTEYIMHWVRQAPGQGLEWMGGINPASGGTTYNQKFKGRVTMTRDTSISTAYMELSRLRSEDTAVYYCARKGKDYFDWYFDVWGQGTTVTVSS VL: DIQLTQSPSSLSASVGDRVTMTCSASSSVSYMHWYQQKPGKAPKLLIYDTSKLASGVPSRFSGSGSGTDFTLTISSLQPEDFATYYCQQWSSQPLTFGGGTKVEIKR | 0.422 nM |
| hz10B4-4 (antibody, human IgG1, kappa, hz10B4_VH4 + hz10B4_VL1; human IgG1, kappa) heavy: not shown light: DIQMTQSPSSLSASVGDRVTMTCSASSSVSYMHWYQQKPGKAPKLLIYDTSKLASGVPSRFSGSGSGTDFTLTISSLQPEDFATYYCQQWSSNPLTFGGGTKVEIKRTVAAPSVFIFPPSDEQLKSGTASVVCLLNNFYPREAKVQWKVDNALQSGNSQESVTEQDSKDSTYSLSSTLTLSKADYEKHKVYACEVTHQGLSSPVTKSFNRGEC | 0.501 nM |
| hz17A3-5 (antibody, human IgG1, kappa, V domains shown, hz17A3_VH3 + hz17A3_VL3; human IgG1, kappa) VH: EVQLVQSGAEVKKPGASVKVSCKASGYTFTDYALHWVRQAPGQGLEWMGLINTYSSNTNYNQKFKDRVTMTRDTSISTAYMELSRLRSEDTAVYYCARGITAVVGTRYYAMDYWGQGTLVTVSS VL: EIVLTQSPGTLSLSPGERATLSCRASQSISNNLHWYQQKPGQAPRLLIKYTSQNISGIPDRFSGSGSGTDFTLTISRLEPEDFAVYYCQQSYSWPLTFGGGTKVEIKR | 0.258 nM |
| hz17A3-2 (antibody, human IgG1, kappa, V domains shown, hz17A3_VH2 + hz17A3_VL1; human IgG1, kappa) VH: QVQLVQSGAEVKKPGASVKVSCKASGYTFTDYALHWVRQAPGQGLEWIGLINTYSSNTNYNQKFKDRVTMTRDTSISTAYMELSRLRSDDTAVYYCARGITAVVGTRYYAMDYWGQGTLVTVSS VL: EIVLTQSPGTLSLSPGERATLSCRASQSISNNLHWYQQKPGQAPRLLIYYTSQNISGIPDRFSGSGSGTDFTLTISRLEPEDFAVYYCQQSYSWPLTFGGGTKVEIKR | 0.771 nM |
| hz17A3-1 (antibody, human IgG1, kappa, V domains shown, hz17A3_VH1 + hz17A3_VL1; human IgG1, kappa) VH: QVQLVQSGAEVKKPGASVKVSCKASGYTFTDYALHWVRQAPGQGLEWMGLINTYSSNTNYNQKFKDRVTMTRDTSISTAYMELSRLRSDDTAVYYCARGITAVVGTRYYAMDYWGQGTLVTVSS VL: EIVLTQSPGTLSLSPGERATLSCRASQSISNNLHWYQQKPGQAPRLLIYYTSQNISGIPDRFSGSGSGTDFTLTISRLEPEDFAVYYCQQSYSWPLTFGGGTKVEIKR | 0.541 nM |
| hz17A3-7 (antibody, human IgG1, kappa, V domains shown, hz17A3_VH5 + hz17A3_VL3; human IgG1, kappa) VH: EVQLVQSGAEVKKPGASVKVSCKASGYTFTDYALHWVRQAPGQGLEWMGLINTYSSSTNYNQKFKDRVTMTRDTSISTAYMELSRLRSEDTAVYYCARGITAVVGTRYYAMDYWGQGTLVTVSS VL: EIVLTQSPGTLSLSPGERATLSCRASQSISNNLHWYQQKPGQAPRLLIKYTSQNISGIPDRFSGSGSGTDFTLTISRLEPEDFAVYYCQQSYSWPLTFGGGTKVEIKR | 0.422 nM |
| hz17A3-6 (antibody, human IgG1, kappa, V domains shown, hz17A3_VH4 + hz17A3_VL3; human IgG1, kappa) VH: EVQLVQSGAEVKKPGASVKVSCKASGYTFTDYALHWVRQAPGQGLEWMGLISTYSSNTNYNQKFKDRVTMTRDTSISTAYMELSRLRSEDTAVYYCARGITAVVGTRYYAMDYWGQGTLVTVSS VL: EIVLTQSPGTLSLSPGERATLSCRASQSISNNLHWYQQKPGQAPRLLIKYTSQNISGIPDRFSGSGSGTDFTLTISRLEPEDFAVYYCQQSYSWPLTFGGGTKVEIKR | 0.401 nM |

The remaining binders from weak to strong by Kd, led by results:

| Kd | Binder |
| --- | --- |
| 0.352 nM | hz10B4-9 (antibody, human IgG1, kappa, V domains shown, hz10B4_VH3 + hz10B4_VL3; human IgG1, kappa) VH: EVQLVQSGAEVKKPGASVKVSCKASGYTFTEYIMHWVRQAPGQGLEWMGGINPASGGTTYNQKFKGRVTMTRDTSISTAYMELSRLRSEDTAVYYCARKGKDYFDWYFDVWGQGTTVTVSS VL: DIQLTQSPSSLSASVGDRVTMTCSASSSVSYMHWYQQKPGKAPKLLIYDTSKLASGVPSRFSGSGSGTDFTLTISSLQPEDFATYYCQQWSSAPLTFGGGTKVEIKR |
| 0.351 nM | hz10B4-13 (antibody, human IgG1, kappa, V domains shown, hz10B4_VH4 + hz10B4_VL4; human IgG1, kappa) VH: EVQLVQSGAEVKKPGASVKVSCKASGYTFTEYIMHWVRQAPGQGLEWMGGINPNQGGTTYNQKFKGRVTMTRDTSISTAYMELSRLRSEDTAVYYCARKGKDYFDWYFDVWGQGTTVTVSS VL: DIQLTQSPSSLSASVGDRVTMTCSASSSVSYMHWYQQKPGKAPKLLIYDTSKLASGVPSRFSGSGSGTDFTLTISSLQPEDFATYYCQQWSASPLTFGGGTKVEIKR |
| 0.341 nM | hz10B4-3 (antibody, human IgG1, kappa, hz10B4_VH3 + hz10B4_VL1; human IgG1, kappa) heavy: not shown light: DIQMTQSPSSLSASVGDRVTMTCSASSSVSYMHWYQQKPGKAPKLLIYDTSKLASGVPSRFSGSGSGTDFTLTISSLQPEDFATYYCQQWSSNPLTFGGGTKVEIKRTVAAPSVFIFPPSDEQLKSGTASVVCLLNNFYPREAKVQWKVDNALQSGNSQESVTEQDSKDSTYSLSSTLTLSKADYEKHKVYACEVTHQGLSSPVTKSFNRGEC |
| 0.332 nM | hz10B4-12 (antibody, human IgG1, kappa, V domains shown, hz10B4_VH4 + hz10B4_VL3; human IgG1, kappa) VH: EVQLVQSGAEVKKPGASVKVSCKASGYTFTEYIMHWVRQAPGQGLEWMGGINPNQGGTTYNQKFKGRVTMTRDTSISTAYMELSRLRSEDTAVYYCARKGKDYFDWYFDVWGQGTTVTVSS VL: DIQLTQSPSSLSASVGDRVTMTCSASSSVSYMHWYQQKPGKAPKLLIYDTSKLASGVPSRFSGSGSGTDFTLTISSLQPEDFATYYCQQWSSAPLTFGGGTKVEIKR |
| 0.177 nM | hz10B4-2 (antibody, human IgG1, kappa, hz10B4_VH2 + hz10B4_VL1; human IgG1, kappa) heavy: not shown light: DIQMTQSPSSLSASVGDRVTMTCSASSSVSYMHWYQQKPGKAPKLLIYDTSKLASGVPSRFSGSGSGTDFTLTISSLQPEDFATYYCQQWSSNPLTFGGGTKVEIKRTVAAPSVFIFPPSDEQLKSGTASVVCLLNNFYPREAKVQWKVDNALQSGNSQESVTEQDSKDSTYSLSSTLTLSKADYEKHKVYACEVTHQGLSSPVTKSFNRGEC |
| 0.131 nM | hz10B4-6 (antibody, human IgG1, kappa, hz10B4_VH2 + hz10B4_VL2; human IgG1, kappa) heavy: not shown light: DIQLTQSPSSLSASVGDRVTMTCSASSSVSYMHWYQQKPGKAPKLLIYDTSKLASGVPSRFSGSGSGTDFTLTISSLQPEDFATYYCQQWSSNPLTFGGGTKVEIKRTVAAPSVFIFPPSDEQLKSGTASVVCLLNNFYPREAKVQWKVDNALQSGNSQESVTEQDSKDSTYSLSSTLTLSKADYEKHKVYACEVTHQGLSSPVTKSFNRGEC |

— patent publication US20250269047A1 (MABWELL SHANGHAI BIOSCIENCE, published 2025)
